US20100144645A1, “COMPOSITIONS AND METHODS FOR ENHANCING […] POTENCY OF […]-COMPOUNDS, A[…] ADVERSE SIDE EFFECTS, AND […] ABUSE” (SHIRE LLC, priority 2006, published 2010)
Where a name gives a salt, the structure may show the parent alone. Residues, ends and D or L forms follow the SMILES beside them. *: point of attachment. X4 = CC(=O)Oc1ccc2c3c1OC1C(O*)=CCC4[C@@H](C2)N(C)CC[C@]314; X2 = CN1CC[C@]23c4c5ccc(O)c4O[C@H]2C(O*)=CC[C@H]3[C@H]1C5; X1 = COc1ccc2c3c1OC1C(O*)=CCC4[C@@H](C2)N(C)CC[C@]314; X3 = CN1CC[C@]23c4c5ccc(O)c4OC2C(O*)=CCC3[C@H]1C5

Assays:
[1] = Oral bioavailability of hydromorphone conjugates; conditions: rats; for Oral AUC %: corrected value calculated based on the bioavailability of the control (HM); for Oral Cmax %: corrected value calculated based on the control (HM)
[2] = Intranasal bioavailability of hydromorphone conjugates; conditions: rats; for IN AUC %: corrected value calculated based on the bioavailability of the control (HM); for IN Cmax %: corrected value calculated based on the control (HM)
[3] = stability 90 C., 20 min (V, BP, TW, BS) of hydrocodone conjugates; conditions: for stability 90 C., 20 min BP: BP (abbreviation not defined); for stability 90 C., 20 min BS: BS (abbreviation not defined); for stability 90 C., 20 min TW: TW (abbreviation not defined); for stability 90 C., 20 min V: V (abbreviation not defined)
[4] = Oral bioavailability of hydrocodone conjugates (plasma hydrocodone plus hydromorphone); conditions: oral, rats; relative to hydrocodone

Compound	Oral AUC % [1] [%]	Oral Cmax % [1] [%]	IN AUC % [2] [%]	IN Cmax % [2] [%]	stability 90 C., 20 min BP [3]	stability 90 C., 20 min BS [3]	stability 90 C., 20 min TW [3]	stability 90 C., 20 min V [3]	bioavailabiltty (% HC) oral AUC [4] [% HC]	bioavailabiltty (% HC) oral Cmax [4] [% HC]
CN1CC[C@]23c4c5ccc(O)c4O[C@H]2C(OC(=O)[C@H](Cc2ccccc2)NC(=O)[C@H](Cc2ccccc2)NC(=O)[C@H](Cc2ccccc2)NC(=O)[C@H](CCC(=O)O)NC(=O)[C@@H](N)CCC(=O)O)=CC[C@H]3[C@H]1C5 [EEFFF-HM, Glu2-Phe3-Hydromorphone.Dihydrochloride] (H-EEFFF-X2)	79	78	52	57	–	–	–	–	–	–
CC[C@H](C)[C@H](NC(=O)[C@H](CCC(=O)O)NC(=O)[C@@H](N)CCC(=O)O)C(=O)OC1=CC[C@H]2[C@H]3Cc4ccc(O)c5c4[C@@]2(CCN3C)[C@H]1O5 [EEI-HM]	56	73	59	88	–	–	–	–	–	–
CC(C)C[C@H](NC(=O)[C@H](CCC(=O)O)NC(=O)[C@@H](N)CCC(=O)O)C(=O)OC1=CC[C@H]2[C@H]3Cc4ccc(O)c5c4[C@@]2(CCN3C)[C@H]1O5 [EEL-HM]	27	49	84	98	–	–	–	–	–	–
CC(C)[C@H](NC(=O)[C@H](CCC(=O)O)NC(=O)[C@@H](N)CCC(=O)O)C(=O)OC1=CC[C@H]2[C@H]3Cc4ccc(O)c5c4[C@@]2(CCN3C)[C@H]1O5 [EEV-HM]	21	50	31	70	–	–	–	–	–	–
CC[C@H](C)[C@H](NC(=O)[C@H](Cc1ccccc1)NC(=O)[C@@H](N)Cc1ccccc1)C(=O)OC1=CC[C@H]2[C@H]3Cc4ccc(O)c5c4[C@@]2(CCN3C)[C@H]1O5 [FFI-HM]	18	47	79	92	–	–	–	–	–	–
CC(C)C[C@H](NC(=O)[C@H](Cc1ccccc1)NC(=O)[C@@H](N)Cc1ccccc1)C(=O)OC1=CC[C@H]2[C@H]3Cc4ccc(O)c5c4[C@@]2(CCN3C)[C@H]1O5 [FFL-HM]	11	24	92	96	–	–	–	–	–	–
CC(C)[C@H](NC(=O)[C@H](Cc1ccccc1)NC(=O)[C@@H](N)Cc1ccccc1)C(=O)OC1=CC[C@H]2[C@H]3Cc4ccc(O)c5c4[C@@]2(CCN3C)[C@H]1O5 [FFV-HM]	8	36	98	103	–	–	–	–	–	–
CC[C@H](C)[C@H](NC(=O)CNC(=O)CN)C(=O)OC1=CCC2[C@H]3Cc4ccc(O)c5c4[C@@]2(CCN3C)C1O5 (stereo partly shown) [GGI-HM]	17	32	24	66	–	–	–	–	–	–
CC(C)C[C@H](NC(=O)CNC(=O)CN)C(=O)OC1=CCC2[C@H]3Cc4ccc(O)c5c4[C@@]2(CCN3C)C1O5 (stereo partly shown) [GGL-HM]	22	43	52	85	–	–	–	–	–	–
CC(C)[C@H](NC(=O)CNC(=O)CN)C(=O)OC1=CCC2[C@H]3Cc4ccc(O)c5c4[C@@]2(CCN3C)C1O5 (stereo partly shown) [GGV-HM]	53	63	51	73	–	–	–	–	–	–
CC[C@H](C)[C@H](NC(=O)CNC(=O)CN)C(=O)OC1=CCC2[C@H]3Cc4ccc(OC)c5c4[C@@]2(CCN3C)C1O5 (stereo partly drawn) [Gly-Gly-Ile-HC]	–	–	–	–	100	100	93	0	–	–
CC[C@H](C)[C@H](NC(=O)[C@H](CCCCN)NC(=O)[C@@H](N)CCCCN)C(=O)OC1=CCC2[C@H]3Cc4ccc(O)c5c4[C@@]2(CCN3C)C1O5 (stereo partly shown) [KKI-HM]	24	56	68	85	–	–	–	–	–	–
CC(C)C[C@H](NC(=O)[C@H](CCCCN)NC(=O)[C@@H](N)CCCCN)C(=O)OC1=CCC2[C@H]3Cc4ccc(O)c5c4[C@@]2(CCN3C)C1O5 (stereo partly shown) [KKL-HM]	24	50	87	96	–	–	–	–	–	–
CC(C)[C@H](NC(=O)[C@H](CCCCN)NC(=O)[C@@H](N)CCCCN)C(=O)OC1=CCC2[C@H]3Cc4ccc(O)c5c4[C@@]2(CCN3C)C1O5 (stereo partly shown) [KKV-HM]	43	60	75	89	–	–	–	–	–	–
CC[C@H](C)[C@H](NC(=O)[C@@H]1CCCN1C(=O)[C@@H]1CCCN1)C(=O)OC1=CCC2[C@H]3Cc4ccc(O)c5c4[C@@]2(CCN3C)C1O5 (stereo partly shown) [PPI-HM]	21	60	77	95	–	–	–	–	–	–
CC(C)C[C@H](NC(=O)[C@@H]1CCCN1C(=O)[C@@H]1CCCN1)C(=O)OC1=CCC2[C@H]3Cc4ccc(O)c5c4[C@@]2(CCN3C)C1O5 (stereo partly shown) [PPL-HM]	22	45	53	70	–	–	–	–	–	–
CC(C)[C@H](NC(=O)[C@@H]1CCCN1C(=O)[C@@H]1CCCN1)C(=O)OC1=CCC2[C@H]3Cc4ccc(O)c5c4[C@@]2(CCN3C)C1O5 (stereo partly shown) [PPV-HM]	24	55	71	101	–	–	–	–	–	–
CC[C@H](C)[C@H](NC(=O)[C@@H]1CCCN1C(=O)[C@@H]1CCCN1)C(=O)OC1=CCC2[C@H]3Cc4ccc(OC)c5c4[C@@]2(CCN3C)C1O5 (stereo partly drawn) [Pro-Pro-Ile-HC]	–	–	–	–	16	100	70	0	–	–
CC[C@H](C)[C@H](NC(=O)[C@@H]1CCCN1C(=O)[C@@H]1CCCN1C(=O)[C@H](Cc1ccc(O)cc1)NC(=O)[C@@H](N)Cc1ccc(O)cc1)C(=O)OC1=CCC2[C@H]3Cc4ccc(OC)c5c4[C@@]2(CCN3C)C1O5 (stereo partly shown) [Tyr2-Pro2-Ile-HC] (H-YYPPI-X1)	–	–	–	–	100	100	83	0	218	213
CC[C@H](C)[C@H](NC(=O)[C@H](Cc1ccccc1)NC(=O)[C@H](Cc1ccccc1)NC(=O)[C@H](Cc1ccc(O)cc1)NC(=O)[C@@H](N)Cc1ccc(O)cc1)C(=O)OC1=CCC2[C@H]3Cc4ccc(OC(C)=O)c5c4[C@@]2(CCN3C)C1O5 (stereo partly shown) [YYFFI-HM-OAc] (H-YYFFI-X4)	29	40	59	72	–	–	–	–	–	–
CC[C@H](C)[C@H](NC(=O)[C@H](Cc1ccccc1)NC(=O)[C@H](Cc1ccccc1)NC(=O)[C@H](Cc1ccc(O)cc1)NC(=O)[C@@H](N)Cc1ccc(O)cc1)C(=O)OC1=CCC2[C@H]3Cc4ccc(O)c5c4[C@@]2(CCN3C)C1O5 (stereo partly shown) [YYFFI-HM] (H-YYFFI-X3)	40	52	4	7	–	–	–	–	–	–
CC[C@H](C)[C@H](NC(=O)[C@H](Cc1ccc(O)cc1)NC(=O)[C@@H](N)Cc1ccc(O)cc1)C(=O)OC1=CCC2[C@H]3Cc4ccc(O)c5c4[C@@]2(CCN3C)C1O5 (stereo partly shown) [YYI-HM]	32	66	88	86	–	–	–	–	–	–
CC(C)C[C@H](NC(=O)[C@H](Cc1ccc(O)cc1)NC(=O)[C@@H](N)Cc1ccc(O)cc1)C(=O)OC1=CCC2[C@H]3Cc4ccc(O)c5c4[C@@]2(CCN3C)C1O5 (stereo partly shown) [YYL-HM]	12	30	74	75	–	–	–	–	–	–
CC(C)[C@H](NC(=O)[C@H](Cc1ccc(O)cc1)NC(=O)[C@@H](N)Cc1ccc(O)cc1)C(=O)OC1=CCC2[C@H]3Cc4ccc(O)c5c4[C@@]2(CCN3C)C1O5 (stereo partly shown) [YYV-HM]	30	53	73	73	–	–	–	–	–	–
(d)-Lys-(1)-Lys-Ile-Hydrocodone [(d)Lys(I)Lys-Ile-HC]	–	–	–	–	69	100	74	0	–	–
Gly-Gly-Leu-Hydrocodone [Gly-Gly-Leu-HC]	–	–	–	–	100	100	85	1	–	–
